Experiment: label from the status in PepcDB records

| Sequence | protein production |
| --- | --- |
| MASLSQLSSHLNYTCGAENSTGASQARPHAYYALSYCALILAIVFGNGLLCMAVLKERALQTTTNYLVVSLAVADLLVATLVMPWVVYLEVTGGVWNFSICCDVFVTLDVMMCTASILNLCAISIDRYTAVVMPVHYQHGTGQSSCRRVALMITAVWVLAFAVSCPLLFGFNTTGNPTVCSISNPDFVIYSSVVSFYLPFGVTVLVYARIYVVLKQRRRKRILTRQNSQCNSVRPGFPQQTLSPDPAHLELKRYYSICQDTALGGPGFQERGGELKREEKTRNSLSPTIAPKLSLEVRKLSNGRLSTSLKLGPLQPRGVPLREKKATQMVAIVLGTFIVCWLPFFLTHVLNTHCQTCHVSPELYSATTWLGYVNSALNPVIYTTFNIEFRKAFLKILSC | not failed |
| MPPNTSFRLAALAVTVSGLLFSSSTLMAAETAETADLVLRNGNIYTVNQGQPWAEAVAVRDGRYVFIGSNAQAAEFIGPKTQVVDLNGSMAMPGINDVHAHPLDGGYEDIYSCNFSQKSSLDDILSQVSECAQKAGPGEWVIGSAWGSPRMAELSTTEALAKLDKVSNGRPVILRDDSYHNRWINSEAMRLAAITAQSVSPAGGVIVKDAKTGEPTGLLQEFPAFQHVQSLVPVRTEEQRLTSGRGATKTMVSLGITGVQEAVSSEVNLRIWSKIDRAEGLPLRIIGSIVSTPLLDEGAAGLELVARRDVYRTTNFFPDRFKFVLDGVPPAHTAKLIEPYLPTQAHGDHYHGDTHYTTEQVVEILSKLDKQGISTKLHAAGDGSLRLALDAVEQVRKINGPNGPMHQIAHTHLISPQDMPRFAQLRVAADLSPMLWFPSDMTNASVVTIGEERMKDFVPTVKLLRSGAVVAGGSDWPAGGPTPSPWIGIEGLVTRQNPLGDAPGTLAPEEAVDLPEAIRIYTINSAKAMGIEKETGSVELGKSADLIVLDRHLFNVPIKQVHRANVVKTYFKGQLVHSAPEKS | failed |
| EENPRGRFAITLPHSLESNVVMPAIEQLCIEYPGIEPEIIVSDSSLDLVENNLDVAIHAGDLPDSSYRALPIGTITEIFCATPLYLNKNFTPQKLSDLAQLKWI | failed |
| MKNIIACIDGSPTTFATCEASAWVASKINAPLILLHALDKTMRPVVSEFSGQIGLGSQEELLNELAELDEARSKVALKHGKKLLEEATEWVIKKGLTNVEQLQRHGSLLESLIDLENQLRVLVIGKLGEDQSSNKTIGSQLESIIRSIKSHTLVVT | failed |
| SSTQGWADGLLTDIAHVRAHISDEFLFSSASTLNEIALAADIEERTQSVDVFLGNSLFVRLVDMFGRLNTEVFTNRGASGIDGLFATASGVQRSRGKPLLMYIGDTSALYDLNSLALFSRNDLPSVLVVTNNDGGAIFDMLPVPQEHRTAYYQMPHGYQFEHAAKQFGLKYEKPTTLQMYQAMVADHLSSGQGTMLVEVQTPPSQAAELIKAFNKSLHASL | failed |
| MLLSSCQSLFSPAYQSTLRPSDNPQTVEQVQKNDPRAQMGAREHPRIVASYGGEYRDAKTERLVARIAGALTAVSENPQQSYRITILNSPAINAFALPGGYLYVTRGLLALANDASEVAAVLSHEMGHVTANHGIERQRREEAEVIASRVVAEVLSSDLAGKQALARGKLRLAAFSRQQELQADVIGVRMLGEAGYDPYASPRFLDSMAAYARFSSADPENDQSLDFLSSHPNTPQRIELARRHARAFGQEGQVGDRGRDWFLDGIDGLLYGDSPQEGYVRGQTFLHGTLGIRFDVPEGFVIDNKVEAVLATGPGDMAIRFDGVADPKQTSLANYLTSGWVAGLLPETVKETQINGLEAATARASADKWDFDVTVIRVGQQIFRFLTAVPKGNTQLDSIANVLRTSFRKMTPQEIASLKPLRVRVVTVKPGETVATMAARMMGTERKLDMFRMINAMSATATLQPGQRVKIISELEHHHHHH | failed |
| MKVKLFAIHLFFIVISFGIKYYHLQGPNLIWNMTLALIALDFAYLTSLFKKKILIGLFALAWFFFYPNTFYMLTDIIHMHFVGDVLYNKTNLILYILYVSSILFGFLSGIESFSVIMRKFRISNIFLRWGIIGIVSLVSSFGIHIGRYARLNSWDILTKPQVVINELLAVPSRDSFHFILGFTFLQVLCLIFMDYSAGKKLEK | failed |
| MSIRIDRQRCIGCGKCAEICPGNLIVIDEDKKAFVRDPRDCWGCAACVKECKFSAIRYFLGAEIGGNGTTMYVEKENDEIMYWYFEKPSGEKEMIVQNLKDNTTYLEHHHHHH | failed |
| MHEIAPLSPAAAALADFQPDRGPAALNGAAVFCGFAPRPLDDGFTWADFGCGLGITASILAAANPQGRFFAIDADGQALAAGRALAKAAFLDNLTFLQADYTKPHDLDLPPLDFAVLGNVLCWLDGQERQALLSRLGTLLKPGGIVLATYDALPGAAALVPLRDLLFSVTAGQAANPVARARAAIDWLGAMRAAGIDFFRDNPALGPRLDALIERGPQALAGRFFGGTLRPLHFAQVNAEMAAQGLTFAGRAEAFLNLIDLAVPAALRPRLRAATSRAEVEATRDFIRNEDHRRDLYIKGAAPSDGAALTAFDDGRILGPAAAPGQANPEVSFGAVSLSFRGALFESLLAALDLGPRPVGELCASAALEGVPPGLIRDGLRLLTAGGLARPYARAADVAPAAPPVWPLRLPHPLNRALALTLGLGGPTVALASKVLGDGVVMDNRDALLLVALCDAGPEGAVERALAILADQAIPCGPATTQALTDRLSPLITDILPWLRVLGVVEG | failed |
| MSLARVLLNIHGTGDTVVLALCDEDLLGVELKYKGRTLHISEPFYSGKSMEPDRAAKKIREAVQEYEDEKTVAINALGELACSVVVDAGLAREDEIGELGGVPHVQMYILPREPFLEGHHHHHH | not failed |
| MSKKSVLITSLMLFSMFFGAGNLIFPPMLGLSAGTNYLPAILGFLATSVLLPVLAIIAVVLSGENVKDMASRGGKIFGLVFPIAAYLSIGAFYALPRTGAVSYSTAVGVDNALYSGLFNFVFFAVALALSWNPNGIADKLGKWLTPALLTLIVVLVVLSVAKLDGTPGEPSSAYAQQPAGAGLLEGYMTMDAIAALAFGIVVISAFKYQKVNKVRTATVVSAFIAGILLALVYLGLGSIGQVVNGEFADGTAILNYAALSTMGQAGRIMFVAILILACMTTAVGLISATSEFFNSLLPGVKYHVWATVFALISFGVATMGLDTVLAVAAPVISFIYPSAITLVFLSLIEPLLFRLKWTYLFGIWTAVVWALFMSIPALNPFIEWAPLHSMSLGWVVPVLVASAIGLAIDWNKKGAQSVAKKESISV | failed |
| MSHTKPSIAILGAGRVGSSLARSAVAAGYEVKVAGSGAVDKIALTAEILMPGAVPSTADQAVKDADIVFLAVPLHKFRSVNPATLEGKIVIDTMNHWVPVNGELEEIDQDPRSTSEIIAEFFAGSTMVKSFNHIGYHEIEQDAGTGRAIAYATDDVDAGAQVAQLIKSFGFVPLNIGALENGRILEPGQEAFGAHLNKDSRLELVNQR | failed |
| MRIDIVTIFPACLDPLRQSLPGKAIESGLVDLNVHDLRRWTHDVHHSVDDAPYGGGPGMVMKAPVWGEALDEICSSETLLIVPTPAGVLFTQATAQRWTTESHLVFACGRYEGIDQRVVQDAARRMRVEEVSIGDYVLPGGESAAVVMVEAVLRLLAGVLGNPASHQDDSHSTGLDGLLEGPSYTRPASWRGLDVPEVLLSGDHARIAAWRREVSLQRTRERRPDLSHPD | failed |
| MYAAVEHGPVLCSDSNILCLSWKGRVPKSEKEKPVCRRRYYEEGWLATGNGRGVVGVTFTSSHCRRDRSTPQRINFNLRGHNSEVVLVRWNEPYQKLATCDADGGIFVWIQYEGRWSVELVNDRGAQVSDFTWSHDGTQALISYRDGFVLVGSVSGQRHWSSEINLESQITCGIWTPDDQQVLFGTADGQVIVMDCHGRMLAHVLLHESDGILSMSWNYPIFLVEDSSESDTDSDDYSPPQDGPAAYPIPVQNTKPLLTVSFTSGDISLMNNYDDLSPTVIRSGLKEVVAQWCTQGDLLAVAGMEQQAQLSELPNGPLLKSAMVKFYNVRGEHIFTLDTLVQRPIISICWGHRDSRLLMASGPALYVVRVEHRVSSLQLLCQQAIASTLREDKDVNKLTLPPRLCSYLSTAFIPTIKPPIPDPNNMRDFVSYPSAGNERLHCTMKRTEDDPEVGGPCYTLYLEYLGGLVPILKGRRISKLRPEFVIMDPRTDSKSDEIYGNSLISTVIDSCNCSDSSDIELSDDWAAKKSPKISRSSKSPKLPRISIEARKSPKLPRAAQEISRSPRLPMRKPSMGSPSLTRREFPFEDITQVGSYN | failed |
| MAAALPRTLGELQLYRILQKANLLSYFDAFIQQGGDDVQQLCEAGEEEFLEIMALVGMASKPLHVRRLQKALRDWVTNPGLFNQPLTSLPVSSIPIYKLPEGSPTWLGISCSSYERSSNAREPHLKIPKCAATTCVQSLGQGKSDVVGSLALQSVGESRLWQGHHATESEHSLSPADLGSPASPKESSEALDAAAALSVAECVERMAPTLPKSDLNEVKELLKTNKKLAKMIGHIFEMNDDDPHKEEEIRKYSAIYGRFDSKRKDGKHLTLHELTVNEAAAQLCVKDNALLTRRDELFALARQISREVTYKYTYRTTKSKCGERDELSPKRIKVEDGFPDFQDSVQTLFQQARAKSEELAALSSQQPEKVMAKQMEFLCNQAGYERLQHAERRLSAGLYRQSSEEHSPNGLTSDNSDGQGERPLNLRMPNLQNRQPHHFVVDGELSRLYPSEAKSHSSESLGILKDYPHSAFTLEKKVIKTEPEDSR | not failed |
| MTVQRREKGSSITRVLEIIEAISRAERPMSPAELAFLLDIPKPSIHRLLQQLEADNYVQINMRGLLVPGDRMHSIALGVLHSSRFKALRQAILKKLAETIGETCGIAIPDGIEMIYYDRVQTNWPLRVNLPVGSHTPVACTASGKLYLSSLPKERRHRIIGKLSLEKLARNTLIESESLEKELINIQANELGTDNEEFIDGMVACSVPIKDQDGKLFACLFTHAPVIRKSLDELLAFEPALRHAAIELGDLLKEQ | failed |
| MKMKYDPGETWRSIYRENKRCDGFNNYYDDESASYQFSENPYVWKDGKERCRTIGMQNDWTALDIGAGAGSMTVPLAKICKRVTAVEPSKTMARILSSNLKKAGLDNVQIINSRWEDAPEEIERHDIIIAAYSLMIDDIEKAVLRMNSLARKKVYLYWFAGVPYWERHCLDLWSTIYGYEYTPSPKVDLIFAVLYKHGIYPDVVNLDSERPPYERVMTTEQAMDELKDSLHLKGNDEWDELLMRYIEDNYEKKEDGCWSRGGSSRMRISWSPQP | failed |
| MKEITIALVGQPNVGKSSLINALSNAHLKVGNFAGVTVDKMEVGLIHKEHQITIIDLPGTYALNDFTTEEKVTKDFLEKGQYDLILNVVDSTNLERNLALSAQLLDTNKKMLLALNMWDEAQKEGIKINTEKLSKELGVVCVPTSARSKEDRLNTELLLDEIVRLYSQNTTNNENIKVPSQSFKESLKYSQSAQRIAQLVISENQQNASFEHTYKIDKILMHKRYGIFIFLGFMFIIFSLSFLIGGGVQKALETGFKFLSDGIKENVANEDLASLVGDGIIGGVGATVSFLPLIVVLYFGISLLETTGYMSRVAFLLDGILHKFGLHGKSFIPLITGFGCSVPAYMATRTLQNYNERLITLFVIGFMSCSARLPIYVLFVGSFFPSSSAGFVLFCIYILGAVVALVMAKLLKLSVFKGQTESFIMEMPKYRFPSWRMVYFSIYTKSLSYLKKAGTYILVGAILIWFMSQYPKSDAAMKAYKQESLLVNKDTTLSSEAKEEKLKELKTELDKKNLKNSIVGRGGAYLEKVFSPMDFDWRLSVSLVTGFMAKEVVVSTLGVLFSLGDQNEKSDAFRGILRKEVSVPSGIAFIVFVMFYIPCFAATITFGREAGGIKFVAYLFIFTTVVAYAFSLIAFYATQILV | failed |
| MVIGVTGKIGTGKSTVCEILKNKYGAHVVNVDRIGHEVLEEVKEKLVELFGGSVLEDGKVNRKKLAGIVFESRENLKKLELLVHPLMKKRVQEIINKTSGLIVIEAALLKRMGLDQLCDHVITVVASRETILKRNREADRRLKFQEDIVPQGIVVANNSTLEDLEKKVEEVMKLVWEKRE | not failed |
| MSLLESIAVVINLLGVWLTARRIRWCWPVGIVAVALYAWLFYQWKLYSDMLLQGVYVLTQLYGWWHWQPGTAADTRIRPLPMPSAERWLSLGIGAAFAATLGAYMHYRTDAVLPWLDAALASFSLVASVWAARKRIANWVLWIVLDCVYVGVFISKGLYPTAVLYAGFVALAVYGWHSWKTQQNQNLAVAR | failed |

Reference: a protein production outcome set (Wang et al. 2014)
